The results in this text go back to patent publication US20090124546A1 (EBERHARD KARLS UNIVERSITAET TUEBINGEN UNIVERSITAETSKILINIKUM, published 2009).

This data set deals with the molecule itself. The experiment in a line: SDS-PAGE and Western blot of synthetic peptide (self-association). On the procedure: Western blot analysis. After physical exercise sweat of the forehead was collected and analyzed by Western blot as already described (Rieg, S. et al. 2006 J. Investig. Dermatol. 126:354-365). Briefly, sweat was centrifuged 3 min at 13,000 rpm (16,000×g) to remove particles and frozen. Then, 15-μl portions of the samples and 4 μg of the DCD peptides LEK-45 and DCD-1L dissolved in water were separated by sodium dodecyl sulfate-polyacrylamide gel electrophoresis (using 15% acrylamide with 0.05% bisacrylamide), transferred electrophoretically (1200 mA/h) onto polyvinylidene difluoride membrane sheets (Immobilon-PSQ; Millipore, Germany) with a tank type blotter and then blocked in 10% nonfat milk in PBS (pH 7.4) for 30 min at room temperature. After incubation with a rabbit polyclonal anti-DCD antibody (1:2,000) that detects the C terminus of DCD-1L overnight at 4° C., the membrane sheets were washed with phosphate buffer and incubated with an anti-rabbit secondary biotin-conjugated polyclonal antibody (1:1,500 in blocking solution). After washing in phosphate buffer the Streptavidin-AP-conjugate (Roche, Mannheim, Germany) was used for the detection of biotin-labeled secondary antibody. The membrane was immersed in CDP-Star solution (Western Lightning chemiluminescence reagents for AP; Roche) for 10 min and then exposed to X-ray film (Eastman Kodak, Rochester, N.Y.).

B1: LEK-45 (peptide)
peptide: LEKGLDGAKKAVGGLGKLGKDAVEDLESVGKGAVHDVKDVLDSVL
As for B1, the binding result is recorded as “binds”.

B2: DCD-1L (peptide)
peptide: SSLLEKGLDGAKKAVGGLGKLGKDAVEDLESVGKGAVHDVKDVLDSVL
notes: also called synthetic peptide DCD-1L
In the case of B2, the binding result is listed as “binds”.
